# In US20170073659:
# B1: caspase-8 (protein)
# chain: MDFSRNLYDIGEQLDSEDLASLKFLSLDYIPQRKQEPIKDALMLFQRLQEKRMLEESNLSFLKELLFRINRLDLLITYLNTRKEEMERELQTPGRAQISAYRVMLYQISEEVSRSELRSFKFLLQEEISKCKLDDDMNLLDIFIEMEKRVILGEGKLDILKRVCAQINKSLLKIINDYEEFSKERSSSLEGSPDEFSNGEELCGVMTISDSPREQDSESQTLDKVYQMKSKPRGYCLIINNHNFAKAREKVPKLHSIRDRNGTHLDAGALTTTFEELHFEIKPHDDCTVEQIYEILKIYQLMDHSNMDCFICCILSHGDKGIIYGTDGQEAPIYELTSQFTGLKCPSLAGKPKVFFIQACQGDNYQKGIPVETDSEEQPYLEMDLSSPQTRYIPDEADFLLGMATVNNCVSYRNPAEGTWYIQSLCQSLRERCPRGDDILTILTEVNYEVSNKDDKKNMGKQMPQPTFTLRKKLVFPSD
# Target: GFP-KRS
protein,measurement,value
B1,amount of KRS cleaved after caspase-8 overexpression (western blot with anti-GFP antibody),the amount of KRS cleaved was increased with the increasing amount of caspase-8
